± gives the uncertainty stated by the source.
B1: library; numbered along this chain (parent)
chain: MEVVDPQQLGMFTEGELMSVGMDTFIHRIDSTEVIYQPRRKRAKLIGKYLMGDLLGEGSYGKVKEVLDSETLCRRAVKILKKKKLRRIPNGEANVKKEIQLLRRLRHKNVIQLVDVLYNEEKQKMYMVMEYCVCGMQEMLDSVPEKRFPVCQAHGYFCQLIDGLEYLHSQGIVHKDIKPGNLLLTTGGTLKISDLGVAEALHPFAADDTCRTSQGSPAFQPPEIANGLDTFSGFKVDIWSAGVTLYNITTGLYPFEGDNIYKLFENIGKGSYAIPGDCGPPLSDLLKGMLEYEPAKRFSIRQIRQHSWFRKKHPPAEAPVPIPPSPDTKDRWRSMTVVPYLEDLHGADEDEDLFDIEDDIIYTQDFTVPGQVPEEEASHNGQRRGLPKAVCMNGTEAAQLSTKSRAEGRAPNPARKACSASSKIRRLSACKQQ

Variants of: B1
Assay: STK11 functional score (HeLa growth suppression), rescaled enrichment; synonymous median = 1, nonsense median = 0 (normalised score)
Conditions: with HeLa; variant type: missense
Method: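 Deep mutational scan (TileSeq/POPCode codon randomisation) of full-length codon-optimised STK11 cDNA integrated at a Bxb1 landing pad (AAVS1) in HeLa cells. Restoring functional STK11 suppresses HeLa proliferation. Variant frequencies were measured by NGS before and after about two weeks of growth. The error-corrected enrichment log-ratio was rescaled so that synonymous median = 1 and nonsense median = 0, scores above 1 were compressed, and codon-level and three biological replicate scores were combined; error is the bootstrapped standard error. Scale: synonymous median = 1, nonsense median = 0; below 0.5 = damaging.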
N247R gave an STK11 functional score of 0.936 ± 0.16.
In the case of N247L, the STK11 functional score is reported as 1.17 ± 0.15.
Variant N247C has an STK11 functional score of 1.15 ± 0.4.
With S232G the STK11 functional score was 0.97 ± 0.2.
In the case of G58I, the STK11 functional score is reported as -0.159 ± 0.1.
In the case of F234C, the STK11 functional score is reported as 1.05 ± 0.39.
Q159I was tested, and the STK11 functional score was 0.332 ± 0.27.
Work on Q159H yielded an STK11 functional score of 0.00983 ± 0.14.
For Q159P, the STK11 functional score was 0.757 ± 0.17.
In the case of A200F, the STK11 functional score is reported as 0.455 ± 0.11.
T71M was tested, and the STK11 functional score was 0.604 ± 0.21.
Work on T71A yielded an STK11 functional score of 1.48 ± 0.31.
In the case of K388F, the STK11 functional score is reported as 1.24 ± 0.4.
L341W showed an STK11 functional score of 1.25 ± 0.43.
For D352S, the STK11 functional score was 1.57 ± 0.14.
D352E was tested, and the STK11 functional score was 1.15 ± 0.64.
With S216T the STK11 functional score was 0.847 ± 0.13.
For S216F, the STK11 functional score was -0.0894 ± 0.09.
N109K was tested, and the STK11 functional score was 1.14 ± 0.19.
N109L gave an STK11 functional score of 0.662 ± 0.11.
For N109T, the STK11 functional score was 0.928 ± 0.11.
Work on I35S yielded an STK11 functional score of 1.49 ± 0.2.
Work on I35N yielded an STK11 functional score of 1.02 ± 0.76.
Work on P38T yielded an STK11 functional score of 0.9 ± 0.23.
In the case of G279Q, the STK11 functional score is reported as 1.32 ± 0.16.
P281Q showed an STK11 functional score of 1.51 ± 0.31.
For C158L, the STK11 functional score was 0.856 ± 0.2.
D355R gave an STK11 functional score of 1.43 ± 0.22.
For T32I, the STK11 functional score was 0.842 ± 0.13.
With V337I the STK11 functional score was 1.48 ± 0.16.
With L17Y the STK11 functional score was 1.6 ± 0.25.
P294S gave an STK11 functional score of 0.67 ± 0.14.
Y166W showed an STK11 functional score of 0.846 ± 0.087.
Work on Q170A yielded an STK11 functional score of 0.916 ± 0.14.
For D207H, the STK11 functional score was 1.37 ± 0.57.
Work on D207S yielded an STK11 functional score of 0.778 ± 0.12.
For E130T, the STK11 functional score was 1.33 ± 0.34.
E130C gave an STK11 functional score of 0.373 ± 0.08.
S428E gave an STK11 functional score of 1.63 ± 0.13.
In the case of F204W, the STK11 functional score is reported as 1.3 ± 0.13.
F204C showed an STK11 functional score of 0.849 ± 0.29.
T189N was tested, and the STK11 functional score was 0.455 ± 0.53.
K312L showed an STK11 functional score of 1.3 ± 0.12.
For K312P, the STK11 functional score was 1.37 ± 0.16.
Variant T244I has an STK11 functional score of 0.627 ± 0.11.
L105Y showed an STK11 functional score of 1.36 ± 0.08.
With T336S the STK11 functional score was 1 ± 0.49.
T336G was tested, and the STK11 functional score was 1.15 ± 0.16.
In the case of P314F, the STK11 functional score is reported as 1.18 ± 0.26.
T209A gave an STK11 functional score of 1.2 ± 0.51.
T209E showed an STK11 functional score of 1.17 ± 0.18.
With L282T the STK11 functional score was 0.466 ± 0.16.
L282M showed an STK11 functional score of 0.225 ± 0.27.
With G242R the STK11 functional score was -0.0649 ± 0.095.
G346N showed an STK11 functional score of 1.6 ± 0.19.
G346D showed an STK11 functional score of 0.435 ± 0.27.
Y60V was tested, and the STK11 functional score was 0.694 ± 0.2.
L50A was tested, and the STK11 functional score was 1.52 ± 0.24.
For I424C, the STK11 functional score was 1.35 ± 0.4.
For P319C, the STK11 functional score was 0.642 ± 0.073.
For M289C, the STK11 functional score was 0.75 ± 0.1.
In the case of P203S, the STK11 functional score is reported as 1.68 ± 0.46.
Variant P413D has an STK11 functional score of 1.6 ± 0.33.
In the case of Q137P, the STK11 functional score is reported as 1.19 ± 0.32.
Variant Q214G has an STK11 functional score of 1.57 ± 0.22.
K84V showed an STK11 functional score of 0.24 ± 0.085.
A153F showed an STK11 functional score of 0.0706 ± 0.09.
A153E gave an STK11 functional score of 0.243 ± 0.093.
H306I showed an STK11 functional score of 0.83 ± 0.16.
In the case of H306E, the STK11 functional score is reported as 1.19 ± 0.38.
L67G was tested, and the STK11 functional score was 0.725 ± 0.17.
L67R showed an STK11 functional score of 0.719 ± 0.45.
V390C gave an STK11 functional score of 1.06 ± 0.48.
E396N showed an STK11 functional score of 1.49 ± 0.1.
Work on E396M yielded an STK11 functional score of 1.47 ± 0.39.
In the case of P89N, the STK11 functional score is reported as 1.67 ± 0.19.
Variant P89A has an STK11 functional score of 1.1 ± 0.3.
In the case of R211S, the STK11 functional score is reported as 1.32 ± 0.15.
In the case of R211D, the STK11 functional score is reported as 1.68 ± 0.17.
For S142Y, the STK11 functional score was 1.13 ± 0.24.
S142V gave an STK11 functional score of 1.51 ± 0.23.
Work on D176G yielded an STK11 functional score of -0.169 ± 0.064.
E291Q gave an STK11 functional score of 1.36 ± 0.41.
E291D gave an STK11 functional score of 1.03 ± 0.35.
For E291A, the STK11 functional score was 1.47 ± 0.44.
With R405M the STK11 functional score was 1.6 ± 0.2.
For R405N, the STK11 functional score was 1.33 ± 0.36.
For L9P, the STK11 functional score was 1.43 ± 0.21.
Variant E121K has an STK11 functional score of 0.738 ± 0.69.
With P373H the STK11 functional score was 1.49 ± 0.37.
K287I showed an STK11 functional score of 1.27 ± 0.33.
K287N gave an STK11 functional score of 1.49 ± 0.57.
Variant P179R has an STK11 functional score of -0.0831 ± 0.084.
Work on G385A yielded an STK11 functional score of 1.46 ± 0.15.
K191T showed an STK11 functional score of 1.16 ± 0.12.
Variant S31L has an STK11 functional score of 1.02 ± 0.091.
Work on S31Y yielded an STK11 functional score of 1.36 ± 0.18.
L290I showed an STK11 functional score of 1.06 ± 0.21.
In the case of T185D, the STK11 functional score is reported as 0.415 ± 0.37.
T185H was tested, and the STK11 functional score was 0.484 ± 0.13.
With A205P the STK11 functional score was 0.302 ± 0.19.
W308G was tested, and the STK11 functional score was 0.086 ± 0.081.
For W308S, the STK11 functional score was -0.303 ± 0.091.
L102R gave an STK11 functional score of 0.466 ± 0.086.
In the case of V133Y, the STK11 functional score is reported as 1.55 ± 0.39.
V133D was tested, and the STK11 functional score was 1.53 ± 0.15.
Work on R331V yielded an STK11 functional score of 1.13 ± 0.57.
For Q37W, the STK11 functional score was 0.288 ± 0.12.
K108W was tested, and the STK11 functional score was 0.834 ± 0.38.
In the case of Q364M, the STK11 functional score is reported as 0.768 ± 0.13.
With I267F the STK11 functional score was 0.659 ± 0.071.
I267D gave an STK11 functional score of 0.629 ± 0.22.
D358Q showed an STK11 functional score of 1.49 ± 0.3.
With G276T the STK11 functional score was 1.16 ± 0.21.
With G276F the STK11 functional score was 0.884 ± 0.19.
In the case of H379L, the STK11 functional score is reported as 1.09 ± 0.32.
Variant H379I has an STK11 functional score of 1.53 ± 0.16.
Work on W332A yielded an STK11 functional score of 1.56 ± 0.26.
W332P showed an STK11 functional score of 1.63 ± 0.24.
In the case of V77T, the STK11 functional score is reported as 1.57 ± 0.19.
R75S was tested, and the STK11 functional score was 0.619 ± 0.16.
Variant R75I has an STK11 functional score of 1.18 ± 0.099.
With G15R the STK11 functional score was 1.4 ± 0.4.
With Y126S the STK11 functional score was 0.6 ± 0.1.
Variant Y272V has an STK11 functional score of 0.735 ± 0.11.
Y272E was tested, and the STK11 functional score was 1.28 ± 0.18.
Variant D229E has an STK11 functional score of 1.03 ± 0.51.
With F298R the STK11 functional score was 0.428 ± 0.25.
Work on D343N yielded an STK11 functional score of 1.02 ± 0.59.
Variant D343A has an STK11 functional score of 1.47 ± 0.29.
In the case of L80A, the STK11 functional score is reported as 1.21 ± 0.22.
With Y253G the STK11 functional score was 0.758 ± 0.17.
Y156V gave an STK11 functional score of 1.06 ± 0.36.
For V372A, the STK11 functional score was 1.48 ± 0.16.
Variant R86M has an STK11 functional score of -0.183 ± 0.08.
Work on I172L yielded an STK11 functional score of 0.71 ± 0.11.
In the case of I172M, the STK11 functional score is reported as 0.35 ± 0.093.
Y362R was tested, and the STK11 functional score was 1.39 ± 0.15.
Y362I gave an STK11 functional score of 1.56 ± 0.15.
Work on H27A yielded an STK11 functional score of 1.19 ± 0.11.
For K48Y, the STK11 functional score was 1.4 ± 0.13.
Work on V368H yielded an STK11 functional score of 1.08 ± 0.6.
Variant L286A has an STK11 functional score of 0.163 ± 0.2.
In the case of M18L, the STK11 functional score is reported as 1.08 ± 0.34.
M18W was tested, and the STK11 functional score was 0.78 ± 0.076.
In the case of V320F, the STK11 functional score is reported as 1.07 ± 0.37.
Variant M129F has an STK11 functional score of 0.993 ± 0.47.
With M129C the STK11 functional score was 1.26 ± 0.13.
For R384E, the STK11 functional score was 1.53 ± 0.27.
E265V showed an STK11 functional score of 1.41 ± 0.37.
S59C was tested, and the STK11 functional score was 0.952 ± 0.27.
P222T showed an STK11 functional score of 0.499 ± 0.25.
H345V was tested, and the STK11 functional score was 1.22 ± 0.44.
For G52V, the STK11 functional score was 1.1 ± 0.19.
I238T gave an STK11 functional score of 1.31 ± 0.54.
In the case of I238C, the STK11 functional score is reported as 1.39 ± 0.33.
For A218F, the STK11 functional score was 1.26 ± 0.17.
With Y340D the STK11 functional score was 0.511 ± 0.17.
In the case of Y340A, the STK11 functional score is reported as 1.56 ± 0.17.
For L140H, the STK11 functional score was -0.0286 ± 0.083.
With L140T the STK11 functional score was 0.232 ± 0.25.
Variant V143S has an STK11 functional score of 1.44 ± 0.36.
In the case of A389S, the STK11 functional score is reported as 1.38 ± 0.32.
In the case of A389E, the STK11 functional score is reported as 1.52 ± 0.17.
With I111G the STK11 functional score was 0.385 ± 0.19.
Variant G288E has an STK11 functional score of 1.5 ± 0.71.
With L252V the STK11 functional score was 1.3 ± 0.094.

From the supplement of paper PMC12338614
